# From publication PMC6624267
# B1: CARD9^2−97 (CARD9 CARD alone), wild type [human] / itself (parent)
# chain: SDYENDDECWSVLEGFRVTLTSVIDPSRITPYLRQCKVLNPDDEEQVLSDPNLVIRKRKVGVLLDILQRTGHKGYVAFLESLELYYPQLYKKVTGK
# Variants of: B1
# Test: polymerization assay (absorbance at 350 nm)
# Settings: with itself; 1 mM D43R/K58D + EDTA (parent trace is 150 uM WT + EDTA); 50 mM Tris, 150 mM NaCl, 0.5 mM TCEP, pH 7.0; 25 °C; read off a plot
row,response [A350],Variant
1,1.7,chain 1 D42R K57D
